In test [1] the target is recombinant BΔg protein (recombinant human brevican, enzymatically deglycosylated, His-tagged) (human) (UniProt Q96GW7). The test is described as follows: BLI (Octet RED), His-tagged BΔg on Ni-NTA sensors, peptide in solution, steady state analysis. In general terms: Biolayer interferometry detects binding as a change in optical thickness at a sensor tip.
Test [2] shares this target. The test is described as follows: BLI (Octet RED), steady state analysis.

The results in this text go back to US20210353708A1.

Where no end group is shown, it is not given here. [ ]: non-standard residue; d: D form. Where only a bound is given, the exact number is not on record here.

Chain of recombinant BΔg protein (recombinant human brevican, enzymatically deglycosylated, His-tagged) (human) (Q96GW7 23-911, stated change not applied, form in doubt): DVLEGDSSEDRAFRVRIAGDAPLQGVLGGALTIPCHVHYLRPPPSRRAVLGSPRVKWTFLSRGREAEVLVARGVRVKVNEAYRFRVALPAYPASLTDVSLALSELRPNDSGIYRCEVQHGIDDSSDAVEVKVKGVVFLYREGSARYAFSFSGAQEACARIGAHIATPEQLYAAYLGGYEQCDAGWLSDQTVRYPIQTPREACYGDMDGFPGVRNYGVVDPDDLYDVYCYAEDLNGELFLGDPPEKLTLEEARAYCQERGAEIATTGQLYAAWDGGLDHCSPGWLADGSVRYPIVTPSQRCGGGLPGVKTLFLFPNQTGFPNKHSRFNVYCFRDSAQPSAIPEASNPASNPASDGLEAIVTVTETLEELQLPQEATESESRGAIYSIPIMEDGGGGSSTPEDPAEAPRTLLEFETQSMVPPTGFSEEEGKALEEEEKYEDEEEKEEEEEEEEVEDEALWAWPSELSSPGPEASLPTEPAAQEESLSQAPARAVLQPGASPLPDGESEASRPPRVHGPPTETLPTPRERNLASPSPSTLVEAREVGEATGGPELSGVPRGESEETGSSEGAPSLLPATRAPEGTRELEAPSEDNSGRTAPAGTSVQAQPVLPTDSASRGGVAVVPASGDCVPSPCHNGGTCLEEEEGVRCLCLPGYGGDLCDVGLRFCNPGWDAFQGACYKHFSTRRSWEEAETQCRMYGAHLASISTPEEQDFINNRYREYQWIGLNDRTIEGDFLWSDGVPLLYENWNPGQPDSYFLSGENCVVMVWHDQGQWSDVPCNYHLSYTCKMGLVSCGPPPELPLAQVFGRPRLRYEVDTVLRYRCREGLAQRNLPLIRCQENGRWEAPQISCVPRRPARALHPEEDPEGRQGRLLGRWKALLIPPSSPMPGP

B1: BTP-9, not labeled with a fluorophore (peptide)
peptide: [dA][dD][dR][dR][dQ][dR][dA][dI]-NH2
modifications: N-terminus assumed
SMILES: CC[C@@H](C)[C@@H](NC(=O)[C@@H](C)NC(=O)[C@@H](CCCNC(=N)N)NC(=O)[C@@H](CCC(N)=O)NC(=O)[C@@H](CCCNC(=N)N)NC(=O)[C@@H](CCCNC(=N)N)NC(=O)[C@@H](CC(=O)O)NC(=O)[C@@H](C)N)C(N)=O
Regarding B1, the Kd in test [1] amounted to 1500 nM.

B2: BTP-7 conjugated to a fluorescein dye (peptide)
peptide: [dT][dK][dW]G[dH][dV][dN][dK]
modifications: not fully specified (C-terminus); also: FITC on side chain of C-terminal Lys: own Lys8 or an added Lys, not given here
For the molecule B2, the fold lower binding affinity than the unlabeled BTP-7 in test [2] is more than 10 fold. In addition, in test [1], the Kd was found to be 3800 nM.

B3: BTP-8, not labeled with a fluorophore (peptide)
peptide: [dT][dI][dR][dK][dL][dV][dR][dH]-NH2
modifications: N-terminus assumed
SMILES: CC[C@@H](C)[C@@H](NC(=O)[C@H](N)[C@H](C)O)C(=O)N[C@H](CCCNC(=N)N)C(=O)N[C@H](CCCCN)C(=O)N[C@H](CC(C)C)C(=O)N[C@@H](C(=O)N[C@H](CCCNC(=N)N)C(=O)N[C@H](Cc1c[nH]cn1)C(N)=O)C(C)C
B3: the Kd in test [1] stood at 1570 nM.

The term Kd denotes the concentration at which binding is half-saturated.
